Holding throughout (assay): Radioligand binding, displacement of 125I-Tyr11-SRIF-14
The target of test [1] is T1, hSSTR-4 (Homo sapiens, UniProt P31391).
T1 construct: host or cells: Chem-1 (Rat ChemiSCREEN) cells, membrane preparation
As to conditions: hSSTR-4. The source says: (§1) The binding to human cloned receptors SSTR-1, or SSTR-2 or SSTR-3 evaluated in stable and selective transfected CHO (Chinese Hamster Ovary) cells and binding to STSR-4 and SSTR-5 in stable and selective transfected Chem-1 (Rat ChemiSCREEN) cells. […] The binding reactions were filtered, the filters were washed, and the bound radioactivity was counted using a gamma counter.
(§2) The following table depicts the conditions of binding assay to each of the somatostatin receptors used for the evaluations of binding affinities of the tested peptides. All assays were performed by quantitation method of radioligand binding under 25° C. The vehicle was 1% DMSO, the incubation buffer was 25 mM HEPES, pH 7.4, 5 mM MgCl2, 1 mM CaCl2, 0.1% BSA. […] The significance criteria were >50% of max inhibition. […] This specific binding data used for calculation of Bmax values which is the concentration of each of the expressed cloned receptor in its transfected cell system.
(§3) The Results of IC50 values were determined by a non-linear, least squares regression analysis using MathIQ™ (ID Business Solutions Ltd., UK). […] The Hill coefficient (nH), defining the slope of the competitive binding curve, was calculated using MathIQ™.

The target in test [2] is SSTR5 (Homo sapiens, UniProt P35346). Also on record: host or cells: Chem-1 (Rat ChemiSCREEN) cells, membrane preparation. Particulars: hSSTR-5.
SSTR5, sequence (P35346 whole entry): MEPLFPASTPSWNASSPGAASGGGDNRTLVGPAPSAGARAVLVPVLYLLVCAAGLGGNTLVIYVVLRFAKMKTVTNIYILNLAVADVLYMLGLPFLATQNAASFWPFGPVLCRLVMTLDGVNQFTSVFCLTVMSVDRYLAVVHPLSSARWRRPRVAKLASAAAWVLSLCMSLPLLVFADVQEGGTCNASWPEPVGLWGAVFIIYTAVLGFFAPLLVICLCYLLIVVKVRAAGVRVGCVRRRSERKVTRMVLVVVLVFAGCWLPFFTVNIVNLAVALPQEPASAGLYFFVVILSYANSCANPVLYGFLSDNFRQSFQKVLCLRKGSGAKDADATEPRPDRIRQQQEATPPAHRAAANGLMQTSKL
Text: as §1, §2, §3

Test [3] has as its target SSTR1 (Homo sapiens, UniProt P30872). Also on record: host or cells: CHO (Chinese Hamster Ovary) cells, membrane preparation. As to conditions: hSSTR-1.
Text: as §1, §2, §3

Test [4] deals with SSTR2 (Homo sapiens, UniProt P30874). The arrangement: host or cells: CHO (Chinese Hamster Ovary) cells, membrane preparation. As to conditions: hSSTR-2.
SSTR2, sequence (P30874 whole entry): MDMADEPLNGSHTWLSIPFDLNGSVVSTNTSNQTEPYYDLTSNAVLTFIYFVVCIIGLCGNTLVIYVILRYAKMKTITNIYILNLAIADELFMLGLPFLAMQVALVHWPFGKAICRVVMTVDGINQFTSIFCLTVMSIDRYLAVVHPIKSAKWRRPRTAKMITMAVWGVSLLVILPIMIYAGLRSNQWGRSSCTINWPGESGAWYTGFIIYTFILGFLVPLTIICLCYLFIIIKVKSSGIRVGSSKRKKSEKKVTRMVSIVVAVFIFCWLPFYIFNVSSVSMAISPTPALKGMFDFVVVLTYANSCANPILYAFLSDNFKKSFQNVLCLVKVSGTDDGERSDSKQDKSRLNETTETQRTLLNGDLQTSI
Text: as §1, §2, §3

Test [5] deals with SSTR3 (Homo sapiens, UniProt P32745). The arrangement: host or cells: CHO (Chinese Hamster Ovary) cells, membrane preparation. Particulars: for % displacement of [^125I] Tyr^11-SRIF-14: hSSTR-3; for affinity and selectivity to SSTR3 (in words): binding data.
SSTR3, sequence (P32745 whole entry): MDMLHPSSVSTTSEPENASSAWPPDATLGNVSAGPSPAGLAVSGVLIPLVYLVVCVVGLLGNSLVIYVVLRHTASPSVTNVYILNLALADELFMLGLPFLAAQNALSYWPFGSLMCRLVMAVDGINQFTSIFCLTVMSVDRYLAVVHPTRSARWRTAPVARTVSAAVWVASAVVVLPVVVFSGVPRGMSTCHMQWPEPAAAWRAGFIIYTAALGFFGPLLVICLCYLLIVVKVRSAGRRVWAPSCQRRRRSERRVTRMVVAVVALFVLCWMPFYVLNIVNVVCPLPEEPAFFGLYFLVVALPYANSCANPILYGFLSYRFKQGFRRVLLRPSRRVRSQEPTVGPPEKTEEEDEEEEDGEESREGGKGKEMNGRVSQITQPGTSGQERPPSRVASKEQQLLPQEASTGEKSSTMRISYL
Text: as §1, §2, §3

*1 amine or outer side, *2 acyl side, *3 side chain or, on linkers, in order; H or OH if unused. Bridges are numbered along the chain shown (N, C = ends). [ ]: non-standard residue; d: D form. The star is where a group is joined. DOTA = O=C(O)CN1CCN(CC(=O)O)CCN(CC(=O)*)CCN(CC(=O)O)CC1; N(2-mercaptoethyl)Gly = O=C(CN(CCS[*:3])[*:1])[*:2]; 4Amb = NCc1ccc(C(=O)O)cc1; Aoc = NCCCCCCCC(=O)O; CPT = camptothecin; GABA = NCCCC(=O)O

SSTR1, sequence (P30872 whole entry): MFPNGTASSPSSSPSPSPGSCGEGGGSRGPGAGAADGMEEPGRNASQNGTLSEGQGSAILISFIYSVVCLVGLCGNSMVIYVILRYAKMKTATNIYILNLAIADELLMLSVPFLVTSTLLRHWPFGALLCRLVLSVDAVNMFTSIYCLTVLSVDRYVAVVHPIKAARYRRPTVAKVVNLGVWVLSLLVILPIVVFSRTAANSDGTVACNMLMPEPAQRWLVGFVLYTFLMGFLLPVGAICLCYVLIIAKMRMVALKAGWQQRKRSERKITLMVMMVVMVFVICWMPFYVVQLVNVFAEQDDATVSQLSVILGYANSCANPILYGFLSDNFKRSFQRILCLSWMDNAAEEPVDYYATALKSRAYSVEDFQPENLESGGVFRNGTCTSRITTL
T1 sequence (P31391 whole entry): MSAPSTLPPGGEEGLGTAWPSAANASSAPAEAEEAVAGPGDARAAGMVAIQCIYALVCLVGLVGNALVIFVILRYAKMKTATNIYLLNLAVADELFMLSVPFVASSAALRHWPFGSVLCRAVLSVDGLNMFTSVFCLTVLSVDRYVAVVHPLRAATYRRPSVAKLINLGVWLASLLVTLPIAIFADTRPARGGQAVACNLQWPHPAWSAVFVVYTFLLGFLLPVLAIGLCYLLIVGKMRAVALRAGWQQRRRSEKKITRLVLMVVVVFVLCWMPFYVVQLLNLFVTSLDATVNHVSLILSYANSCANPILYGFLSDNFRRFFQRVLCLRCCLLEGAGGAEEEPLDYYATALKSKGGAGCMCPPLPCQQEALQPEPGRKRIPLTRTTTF

“(DOTA)2-Lys^1-D-Phe^2-Arg^3-Cys^4-Phe^5-D-Trp^6-Lys^7-Thr^8-Phe^9-NTEG^10-NH2 (cyclo 3-9) ({DOTA}-K(DOTA)[dF]RCF[dW]KTF[N(2-mercaptoethyl)Gly]-NH2; disulfide 4-10 (inferred); not fully specified; printed as (DOTA)2-Lys1-D-Phe2-Arg3-Cys4-Phe5-D-Trp6-Lys7-Thr8-Phe9-NTEG10-NH2 (cyclo 3-9)) [SEQ ID NO: 16]”: the “% displacement of [^125I] Tyr^11-SRIF-14” value was 0(0) % in test [1] (at 1 nM (in brackets)); 0(0) % in test [1] (at 10 nM); 0% in test [2] (at 1 nM (in brackets)); 3% in test [2] (at 10 nM); 0% in test [3] (at 1 nM (in brackets)); 5% in test [3] (at 10 nM). Besides, the “% displacement of [^125I] Tyr^11-SRIF-14” value worked out at 6% in test [4] (at 1 nM (in brackets)), 2% in test [4] (at 10 nM), 47% in test [5] (at 1 nM (in brackets)) and 88% in test [5] (at 10 nM).

As to “CPT-8-aminooctanoic acid-D-Phe^1-Arg^2-Cys^3-Phe^4-D-Trp^5-Lys^6-Thr^7-Phe^8-NTEG^9-NH2 (cyclo 3-9) ({CPT-Aoc}-[dF]RCF[dW]KTF[N(2-mercaptoethyl)Gly]-NH2; disulfide 3-9) [SEQ ID NO: 27]”, the “% displacement of [^125I] Tyr^11-SRIF-14” value is on record as 0(0) % in test [1] (at 1 nM (in brackets)); 0(0) % in test [1] (at 10 nM); 0(0) % in test [2] (at 1 nM (in brackets)); 0(0) % in test [2] (at 10 nM); 0% in test [3] (at 1 nM (in brackets)); 3% in test [3] (at 10 nM). Moreover, the “% displacement of [^125I] Tyr^11-SRIF-14” value was 0(0) % in test [4] (at 1 nM (in brackets)), 0(0) % in test [4] (at 10 nM), 12% in test [5] (at 1 nM (in brackets)) and 51% in test [5] (at 10 nM). The “affinity to SSTR3” value in test [5] is given as at most 10 nM. Also, in test [5], the “affinity and selectivity to SSTR3 (in words)” value (“affinity and selectivity” below) is “the same selectivity to SSTR3 as SEQ ID NO: 1”.

Take “DOTA-4-Amb-D-Phe^1-Arg^2-Cys^3-Phe^4-D-Trp^5-Lys^6-Thr^7-Phe^8-NTEG^9-NH2 (cyclo 3-9) ({DOTA-4Amb}-[dF]RCF[dW]KTF[N(2-mercaptoethyl)Gly]-NH2; disulfide 3-9) [SEQ ID NO: 18]”: the “% displacement of [^125I] Tyr^11-SRIF-14” value is given as 0% in test [1] (at 1 nM (in brackets)); 8% in test [1] (at 10 nM); 0(0) % in test [2] (at 1 nM (in brackets)); 0(0) % in test [2] (at 10 nM); 0% in test [3] (at 1 nM (in brackets)); 4% in test [3] (at 10 nM). Moreover, the “% displacement of [^125I] Tyr^11-SRIF-14” value in test [4] (at 1 nM (in brackets)) was 0(0) %; in test [4] (at 10 nM) it was 0(0) %; in test [5] (at 1 nM (in brackets)), 49%; in test [5] (at 10 nM) it was 85%.

“DOTA-8-aminooctanoic acid-D-Phe^1-Arg^2-Cys^3-Phe4-D-Trp^5-Lys^6-Thr^7-Phe^8-NTEG^9-NH^2(cyclo 3-9) ({DOTA-Aoc}-[dF]RCF[dW]KTF[N(2-mercaptoethyl)Gly]-NH2; disulfide 3-9) [SEQ ID NO: 15]”: the “% displacement of [^125I] Tyr^11-SRIF-14” value in test [1] (at 1 nM (in brackets)) is 0(0) %; in test [1] (at 10 nM), 0(0) %; in test [2] (at 1 nM (in brackets)), 0(0) %; in test [2] (at 10 nM), 0(0) %; in test [3] (at 1 nM (in brackets)), 6%; in test [3] (at 10 nM) it was 18%. Besides, the “% displacement of [^125I] Tyr^11-SRIF-14” value amounted to 1% in test [4] (at 1 nM (in brackets)), 0% in test [4] (at 10 nM), 49% in test [5] (at 1 nM (in brackets)) and 87% in test [5] (at 10 nM).

Regarding “DOTA-Ala^1-D-Phe^2-Arg^3-Cys^4-Phe^5-D-Trp^6-Lys^7-Thr^8-Phe^9-NTEG^10-NH2 (cyclo 4-10) ({DOTA}-A[dF]RCF[dW]KTF[N(2-mercaptoethyl)Gly]-NH2; disulfide 4-10; SMILES C[C@H](NC(=O)CN1CCN(CC(=O)O)CCN(CC(=O)O)CCN(CC(=O)O)CC1)C(=O)N[C@H](Cc1ccccc1)C(=O)N[C@@H](CCCNC(=N)N)C(=O)N[C@H]1CSSCCN(CC(N)=O)C(=O)[C@H](Cc2ccccc2)NC(=O)[C@H]([C@@H](C)O)NC(=O)[C@H](CCCCN)NC(=O)[C@@H](Cc2c[nH]c3ccccc23)NC(=O)[C@H](Cc2ccccc2)NC1=O) [SEQ ID NO: 12]”, the “% displacement of [^125I] Tyr^11-SRIF-14” value in test [1] (at 1 nM (in brackets)) is recorded as 0(0) %; in test [1] (at 10 nM), 0(0) %; in test [2] (at 1 nM (in brackets)), 0%; in test [2] (at 10 nM), 13%; in test [3] (at 1 nM (in brackets)) it was 0%; in test [3] (at 10 nM), 10%. For the same substance, the “% displacement of [^125I] Tyr^11-SRIF-14” value in test [4] (at 1 nM (in brackets)) is given as 0(0) %; in test [4] (at 10 nM), 0(0) %; in test [5] (at 1 nM (in brackets)) it was 64%; in test [5] (at 10 nM), 93%.

On to “DOTA-Arg^1-Gly^2-Asp^3-D-Phe^4-Arg^5-Cys^6-Phe^7-D-Trp^8-Lys^9-Thr^10-Phe^11-NTEG^12- NH2 (cyclo 6-12) ({DOTA}-RGD[dF]RCF[dW]KTF[N(2-mercaptoethyl)Gly]-NH2; disulfide 6-12; SMILES C[C@@H](O)[C@@H]1NC(=O)[C@H](CCCCN)NC(=O)[C@@H](Cc2c[nH]c3ccccc23)NC(=O)[C@H](Cc2ccccc2)NC(=O)[C@@H](NC(=O)[C@H](CCCNC(=N)N)NC(=O)[C@@H](Cc2ccccc2)NC(=O)[C@H](CC(=O)O)NC(=O)CNC(=O)[C@H](CCCNC(=N)N)NC(=O)CN2CCN(CC(=O)O)CCN(CC(=O)O)CCN(CC(=O)O)CC2)CSSCCN(CC(N)=O)C(=O)[C@H](Cc2ccccc2)NC1=O) [SEQ ID NO: 14]”, for which, in test [5], the “affinity and selectivity” value is “did not interfere with the affinity and selectivity of SEQ ID NO: 3 to SSTR3”. The figures for the “% displacement of [^125I] Tyr^11-SRIF-14” value in test [5] (at 1 nM (in brackets)) and in test [5] (at 10 nM) were 46% and 89%, respectively.

With “DOTA-D-Phe^1-Arg^2-Cys^3-Tyr^4-D-Trp^5-Lys^6-Thr^7-Phe^8-NTEG^9-NH2 (cyclo 3-9) ({DOTA}-[dF]RCY[dW]KTF[N(2-mercaptoethyl)Gly]-NH2; disulfide 3-9; SMILES C[C@@H](O)[C@@H]1NC(=O)[C@H](CCCCN)NC(=O)[C@@H](Cc2c[nH]c3ccccc23)NC(=O)[C@H](Cc2ccc(O)cc2)NC(=O)[C@@H](NC(=O)[C@H](CCCNC(=N)N)NC(=O)[C@@H](Cc2ccccc2)NC(=O)CN2CCN(CC(=O)O)CCN(CC(=O)O)CCN(CC(=O)O)CC2)CSSCCN(CC(N)=O)C(=O)[C@H](Cc2ccccc2)NC1=O) [SEQ ID NO: 25]”, the “% displacement of [^125I] Tyr^11-SRIF-14” value was found to be 5% in test [1] (at 1 nM (in brackets)); 8% in test [1] (at 10 nM); 6% in test [2] (at 1 nM (in brackets)); 16% in test [2] (at 10 nM); 1% in test [3] (at 1 nM (in brackets)); 15% in test [3] (at 10 nM). Further, the “% displacement of [^125I] Tyr^11-SRIF-14” value in test [4] (at 1 nM (in brackets)) is listed as 0(0) %; in test [4] (at 10 nM), 0(0) %; in test [5] (at 1 nM (in brackets)), 65%; in test [5] (at 10 nM), 94%.

For “DOTA-D-Phe^1-Lys^2-Cys^3-Tyr^4-D-Trp^5-Lys^6-Thr^7-Phe^8-NTEG^9 -NH2 (cyclo 3-9) ({DOTA}-[dF]KCY[dW]KTF[N(2-mercaptoethyl)Gly]-NH2; disulfide 3-9; SMILES C[C@@H](O)[C@@H]1NC(=O)[C@H](CCCCN)NC(=O)[C@@H](Cc2c[nH]c3ccccc23)NC(=O)[C@H](Cc2ccc(O)cc2)NC(=O)[C@@H](NC(=O)[C@H](CCCCN)NC(=O)[C@@H](Cc2ccccc2)NC(=O)CN2CCN(CC(=O)O)CCN(CC(=O)O)CCN(CC(=O)O)CC2)CSSCCN(CC(N)=O)C(=O)[C@H](Cc2ccccc2)NC1=O) [SEQ ID NO: 24]”, the entries for the “% displacement of [^125I] Tyr^11-SRIF-14” value in test [5] (at 1 nM (in brackets)) and in test [5] (at 10 nM) were 66% and 88%, respectively.

Regarding “DOTA-GABA-D-Phe^1-Arg^2-Cys^3-Phe^4-D-Trp^5-Lys^6-Thr^7-Phe^8-NTEG^9-NH2 (cyclo 3-9) ({DOTA-GABA}-[dF]RCF[dW]KTF[N(2-mercaptoethyl)Gly]-NH2; disulfide 3-9) [SEQ ID NO: 7]”, the “affinity and selectivity” value in test [5] is “increased the affinity and selectivity”.

The values above are taken from patent publication US20240165282A1, “CONFORMATIONAL CONSTRAINED SOMATOSTATIN RECEPTOR 3 PEPTIDE LIGANDS AND THEIR CONJUGATES AND USES THEREOF” (STARGET PHARMA LTD., priority 2021, published 2024).
